According to IntAct's records for PubMed 30458687:

Tests used:
[1] = molecular target: apoa1_human APOA1 (UniProt P02647)
[2] = molecular target: apoa1_human APOA1 (UniProt P02647); remark: listed apart in the source

apoa1_human APOA1, sequence (P02647 whole entry): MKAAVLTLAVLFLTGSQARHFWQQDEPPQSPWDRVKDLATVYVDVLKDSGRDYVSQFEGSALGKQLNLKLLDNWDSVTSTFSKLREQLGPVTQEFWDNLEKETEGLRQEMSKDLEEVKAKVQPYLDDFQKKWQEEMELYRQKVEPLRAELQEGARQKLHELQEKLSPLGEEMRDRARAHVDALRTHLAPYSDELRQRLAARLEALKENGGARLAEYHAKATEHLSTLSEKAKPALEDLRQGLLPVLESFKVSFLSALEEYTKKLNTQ

Substance: Phospholipid-transporting ATPase ABCA1 (Homo sapiens), O95477 K939M;K1952M
- effect of a mutation on the interaction [1]: disrupting interaction strength
- effect of a mutation on the interaction [2]: disrupting interaction strength
